The record followed here is article PMC6441084, “The formin Drosophila homologue of Diaphanous2 (Diaph2) controls microtubule dynamics in colorectal cancer cells independent of its FH2-domain” (Scientific Reports, 2019).

This experiment deals with microtubules (MTs) polymerised from purified tubulin (Cytoskeleton, # T240) (UniProt P02550 1-451). Put plainly: cell-based or functional assay.

B1: full-length (FL) Diaph2 (Drosophila homologue of Diaphanous2), GST-fusion protein (natural protein, human, UniProt O60879 1-1101, looked up)
chain: MEQPGAAASGAGGGSEEPGGGRSNKRSAGNRAANEEETKNKPKLNIQIKTLADDVRDRITSFRKSTVKKEKPLIQHPIDSQVAMSEFPAAQPLYDERSLNLSEKEVLDLFEKMMEDMNLNEEKKAPLRNKDFTTKREMVVQYISATAKSGGLKNSKHECTLSSQEYVHELRSGISDEKLLNCLESLRVSLTSNPVSWVNNFGHEGLGLLLDELEKLLDKKQQENIDKKNQYKLIQCLKAFMNNKFGLQRILGDERSLLLLARAIDPKQPNMMTEIVKILSAICIVGEENILDKLLGAITTAAERNNRERFSPIVEGLENQEALQLQVACMQFINALVTSPYELDFRIHLRNEFLRSGLKTMLPDLKEKENDELDIQLKVFDENKEDDLTELSHRLNDIRAEMDDMNEVYHLLYNMLKDTAAENYFLSILQHFLLIRNDYYIRPQYYKIIEECVSQIVLHCSGMDPDFKYRQRLDIDLTHLIDSCVNKAKVEESEQKAAEFSKKFDEEFTARQEAQAELQKRDEKIKELEAEIQQLRTQAQVLSSSSGIPGPPAAPPLPGVGPPPPPPAPPLPGGAPLPPPPPPLPGMMGIPPPPPPPLLFGGPPPPPPLGGVPPPPGISLNLPYGMKQKKMYKPEVSMKRINWSKIEPTELSENCFWLRVKEDKFENPDLFAKLALNFATQIKVQKNAEALEEKKTGPTKKKVKELRILDPKTAQNLSIFLGSYRMPYEDIRNVILEVNEDMLSEALIQNLVKHLPEQKILNELAELKNEYDDLCEPEQFGVVMSSVKMLQPRLSSILFKLTFEEHINNIKPSIIAVTLACEELKKSESFNRLLELVLLVGNYMNSGSRNAQSLGFKINFLCKIRDTKSADQKTTLLHFIADICEEKYRDILKFPEELEHVESASKVSAQILKSNLASMEQQIVHLERDIKKFPQAENQHDKFVEKMTSFTKTAREQYEKLSTMHNNMMKLYENLGEYFIFDSKTVSIEEFFGDLNNFRTLFLEAVRENNKRREMEEKTRRAKLAKEKAEQEKLERQKKKKQLIDINKEGDETGVMDNLLEALQSGAAFRDRRKRIPRNPDNRRVPLERSRSRHNGAISSK
Take B1: the “rate of MT-polymerization (turbidity at 340 nm, no taxol; 2 µM tubulin, 0.2 µM Diaph2 protein), fold against the buffer control” value amounted to 40 fold.

B2: FH2-domain of Diaph2 (aa 624-1049), GST-fusion protein (domain or fragment, human, UniProt O60879 624-1049, looked up)
chain: YGMKQKKMYKPEVSMKRINWSKIEPTELSENCFWLRVKEDKFENPDLFAKLALNFATQIKVQKNAEALEEKKTGPTKKKVKELRILDPKTAQNLSIFLGSYRMPYEDIRNVILEVNEDMLSEALIQNLVKHLPEQKILNELAELKNEYDDLCEPEQFGVVMSSVKMLQPRLSSILFKLTFEEHINNIKPSIIAVTLACEELKKSESFNRLLELVLLVGNYMNSGSRNAQSLGFKINFLCKIRDTKSADQKTTLLHFIADICEEKYRDILKFPEELEHVESASKVSAQILKSNLASMEQQIVHLERDIKKFPQAENQHDKFVEKMTSFTKTAREQYEKLSTMHNNMMKLYENLGEYFIFDSKTVSIEEFFGDLNNFRTLFLEAVRENNKRREMEEKTRRAKLAKEKAEQEKLERQKKKKQLIDINKE
Consider B2, for which the “rate of MT-polymerization (turbidity at 340 nm, no taxol; 2 µM tubulin, 0.2 µM Diaph2 protein), fold against the buffer control” value amounted to 4 fold.
